Assay results published in patent US20230124669A1 (ADAGENE, published 2023).
Each block holds one binder with its values, some of them ahead of it.

Tests used:
[1] = target: T1, mouse PDL1 expressed on cells (mouse, UniProt Q9EP73 19-290); test: told in words; cross-reactivity by flow cytometry on antigen-expressing cells (FIG. 13)
T1 construct: whole, on cells
Protocol: (§1) The affinity of antibodies was also assessed against human, monkey and mouse CD137 or PDL1 that were transiently expressed on the surface of yeast or HEK293F cells. Briefly, yeast or HEK293F cells were transfected with a plasmid expressing human, monkey or mouse CD137 or PDL1. After 48 hours, the transfected cells were harvested and then washed. Cells were then incubated with IgGs (each at 100 nM) at 4° C. in the shaking bed for 1 hour shaking at 300 rpm, protected from light. For simultaneously binding, cell were incubated with biotinylated human CD137 or PDL1 protein fused with human Fc fragment, and SA-PE (streptavidin, phycoerythrin conjugated). For cross-reactivity, cells were incubated with Alexa Fluor 647 conjugated mouse anti-human Fc antibodies. The mixtures were incubated at 4° C. in the shaking bed for 30 minutes shaking at 300 rpm, protected from light. The cells were washed once prior to analysis by flow cytometry (Beckman CytoFlex).

[2] = target: T2, human CD3 (E and δ chain heterodimer) fused with human Fc fragment (human, UniProt P07766 23-126; P04234 22-105); test: ELISA, plate coated with 2 µg/mL antigen-human Fc fusion, serially diluted IgG
T2 construct: ELISA coating antigen; the text prints 'E and 6 chain heterodimer', read as epsilon and delta
Protocol: 2 μg/mL of human HER2 or CD3 (E and 6 chain heterodimer) fused with human Fc fragment, were prepared and used to coat the ELISA plate at 2-8′C overnight. After washing and blocking, 50 μL serial diluted IgGs were added and incubated at 37′C for 1 hour. Plates were washed three times and then incubated with 50 μL/well TMB substrate at room temperature for about 20 minutes. Absorbance at 450 nm was measured after the reaction was stopped. The data was analyzed by GraphPad Prism 6 with nonlinear fitting.

[3] = target: T3, mouse CD137 expressed on cells (mouse, UniProt P20334 24-256); test: told in words; cross-reactivity by flow cytometry on antigen-expressing cells (FIG. 13)
T3 construct: whole, on cells
T3 sequence (looked up): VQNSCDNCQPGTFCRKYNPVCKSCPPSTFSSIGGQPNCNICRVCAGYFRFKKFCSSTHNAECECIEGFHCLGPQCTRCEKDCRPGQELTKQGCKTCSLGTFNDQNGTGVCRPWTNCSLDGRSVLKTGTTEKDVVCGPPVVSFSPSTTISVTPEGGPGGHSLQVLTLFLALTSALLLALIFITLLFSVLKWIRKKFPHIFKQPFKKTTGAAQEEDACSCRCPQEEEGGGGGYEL
Protocol: as §1

[4] = target: T3, mouse CD137 expressed on cells; test: flow cytometry, antigen transiently expressed on yeast or HEK293F cells, IgG at 100 nM, Alexa Fluor 647 anti-human Fc detection (FIG. 13)
Protocol: as §1

[5] = target: T1, mouse PDL1 expressed on cells; test: as above
Protocol: as §1

[6] = target: T4, Human CD137 (SPR analyte) (human, UniProt Q07011 24-186, limits assumed); test: SPR (Biacore T200), antibody captured by anti-human IgG on CM5 chip, antigen injected as analyte, 1:1 Langmuir fit
T4 construct: also called CD137H
Protocol: (§2) Biacore T200 (GE Healthcare) was used as a high performance system for real-time biomolecular interaction analysis, using surface plasmon resonance technology (“SPR”). During the measurement, anti-human IgG monoclonal antibody from the Human Antibody Capture Kit provided by Biacore was immobilized on CM5 chips, and IgG sample was injected onto sensor chip. Analytes were injected onto IgG captured flow cell for binding kinetic analysis in HBS-EP buffer.

[7] = target: T5, Human PDL1 (SPR analyte) (human, UniProt Q9NZQ7 19-238, limits assumed); test: as above
T5 construct: also called PDL1H
Protocol: as §2

[8] = target: HER2 on HER2-positive tumor cells (SKOV3) (UniProt P04626 23-1255); test: cell-based or functional assay

T2 sequence (P07766 23-126, stated change not applied, chain 1 of 2): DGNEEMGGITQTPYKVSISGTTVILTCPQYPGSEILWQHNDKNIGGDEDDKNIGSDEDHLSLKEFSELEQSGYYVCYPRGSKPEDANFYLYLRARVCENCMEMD
T2 sequence (P04234 22-105, stated change not applied, chain 2 of 2): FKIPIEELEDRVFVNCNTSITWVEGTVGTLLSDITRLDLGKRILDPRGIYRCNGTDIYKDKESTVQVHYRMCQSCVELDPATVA
T1 sequence (Q9EP73 19-290): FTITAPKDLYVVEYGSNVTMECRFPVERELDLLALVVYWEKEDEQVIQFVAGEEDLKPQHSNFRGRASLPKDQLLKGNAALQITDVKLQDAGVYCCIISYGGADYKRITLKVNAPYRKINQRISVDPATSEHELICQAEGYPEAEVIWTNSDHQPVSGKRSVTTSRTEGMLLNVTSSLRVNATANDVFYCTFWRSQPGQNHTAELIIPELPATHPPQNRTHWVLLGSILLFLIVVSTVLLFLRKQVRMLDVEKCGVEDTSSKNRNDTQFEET
T5 sequence (Q9NZQ7 19-238 limits assumed): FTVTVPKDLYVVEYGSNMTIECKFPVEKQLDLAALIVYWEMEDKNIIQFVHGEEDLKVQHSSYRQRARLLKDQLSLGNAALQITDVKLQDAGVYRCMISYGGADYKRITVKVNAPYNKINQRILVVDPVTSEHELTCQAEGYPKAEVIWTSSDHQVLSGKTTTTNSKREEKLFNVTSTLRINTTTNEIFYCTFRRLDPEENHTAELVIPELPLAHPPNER

- binding result [1]: binds
B1: anti-PDL1 Fv (antibody, V domains shown)
VH: EVQLVESGGGLVQPGGSLRLSCAASGYSISSGYYWGWIRQAPGKGLEWIGIIYPSGGGTNYAQKFQGRVTISRDNSKNTLYLQLNSLRAEDTAVYYCARGGGLGFDYWGQGTLVTVSS
VL: DIQLTQSPSSLSASVGDRVTITCRASQSIPSFLNWYQQKPGKAPKLLIYAASSLQSGVPSRFSGSGSGTDFTLTISSLQPEDFATYYCQHYISWPRQFTFGQGTKVEIKR
notes: Named only as the anti-PDL1 Fv used in the bispecific and parental antibodies; also called PDL1 VH / PDL1 VL

- binding result [2]: binds
B2: TY24051 (bispecific antibody)
heavy: not shown
chain: not shown
light: QAVVTQEPSLTVSPGGTVTLTCGSSTGAVTTSNYANWVQQKPGQAPRGLIGGTNKRAPGVPARFSGSLLGGKAALTLSGAQPEDEAEYYCALWYSNLWVFGGGTKLTVLRGGGGSGGGGSGGGGSGGGGSEVQLVESGGGLVQPGGSLRLSCAASGFTFNTYAMNWVRQAPGKGLEWVGRIRSKYNNYATYYADSVKGRFTISRDDSKNTLYLQMNSLRAEDTAVYYCVRHGNFGNSYVSWFAYWGQGTLVTVSSEPKSSDKTHTCPPCPAPELLGGPSVFLFPPKPKDTLMISRTPEVTCVVVDVSHEDPEVKFNWYVDGVEVHNAKTKPREEQYASTYRVVSVLTVLHQDWLNGKEYKCKVSNKALPAPIEKTISKAKGQPREPQVYTDPPSRDELTKNQVSLTCLVDGFYPSDIAVEWESNGQPENCYKTTPPVLDSDGSFFLYSKLTVDKSRWQQGNVFSCSVMHEALHNHYTQDSLSLSPGK
notes: Anti-HER2 Fab arm and anti-CD3 scFv arm, IgG1 Fc with TYM13 mutations and N297A; also called HER2×CD3 bispecific T-cell-engaging antibody; parental bispecific Fab X scFv in IgG1

- binding result [3]: binds
B3: anti-CD137 Fv (antibody, V domains shown)
VH: EVQLVESGGGLVQPGGSLRLSCAASGFSLSTGGVGVGWIRQAPGKGLEWLALIDWADDKYYSPSLKSRLTISRDNSKNTLYLQLNSLRAEDTAVYYCARGGSDTVIGDWFAYWGQGTLVTVSS
VL: DIQLTQSPSSLSASVGDRVTITCRASQSIGSYLAWYQQKPGKAPKLLIYDASNLETGVPSRFSGSGSGTDFTLTISSLQPEDFATYYCQQGYYLWTFGQGTKVEIKR
notes: Named only as the anti-CD137 Fv used in the bispecific and parental antibodies; also called CD137 VH / CD137 VL

- binding result [4]: binds
- binding result [5]: binds
- Kd [6]: 6.7 nM
- Kd [7]: 7.7 nM
B4: TY22148 (bispecific antibody, human IgG1, kappa)
heavy: DIQLTQSPSSLSASVGDRVTITCRASQSIPSFLNWYQQKPGKAPKLLIYAASSLQSGVPSRFSGSGSGTDFTLTISSLQPEDFATYYCQHYISWPRQFTFGQGTKVEIKRTVAAPSVFIFPPSDEQLKSGTASVVCLLNNFYPREAKVQWKVDNALQSGNSQESVTEQDSKDSTYSLSSTLTLSKADYEKHKVYACEVTHQGLSSPVTKSFNRGEC
light: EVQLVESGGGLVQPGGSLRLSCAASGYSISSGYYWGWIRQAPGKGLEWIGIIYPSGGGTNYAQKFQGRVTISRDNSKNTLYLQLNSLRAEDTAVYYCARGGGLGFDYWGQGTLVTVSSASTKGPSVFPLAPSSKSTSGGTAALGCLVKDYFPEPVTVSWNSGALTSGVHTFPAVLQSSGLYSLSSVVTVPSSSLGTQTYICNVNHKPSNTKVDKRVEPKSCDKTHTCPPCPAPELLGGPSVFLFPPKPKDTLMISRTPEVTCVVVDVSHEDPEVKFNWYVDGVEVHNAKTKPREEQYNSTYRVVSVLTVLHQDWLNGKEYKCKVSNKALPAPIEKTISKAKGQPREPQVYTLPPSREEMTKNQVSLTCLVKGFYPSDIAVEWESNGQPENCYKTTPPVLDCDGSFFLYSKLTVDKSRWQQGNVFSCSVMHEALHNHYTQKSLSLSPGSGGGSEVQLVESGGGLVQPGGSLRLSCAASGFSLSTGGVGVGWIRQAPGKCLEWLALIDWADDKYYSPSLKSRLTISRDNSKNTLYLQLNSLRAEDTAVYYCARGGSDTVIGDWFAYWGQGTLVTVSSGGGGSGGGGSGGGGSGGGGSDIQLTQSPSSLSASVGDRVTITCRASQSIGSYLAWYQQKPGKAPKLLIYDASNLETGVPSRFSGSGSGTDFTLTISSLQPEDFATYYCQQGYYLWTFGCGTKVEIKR
notes: Morrison format: anti-PDL1 Fab, anti-CD137 scFv; IgG1 with N390C:S400'C; also called PDL1 × CD137 bispecific antibody, format TYF02

- binding result [2]: binds
B5: TY24052 (bispecific antibody)
heavy: not shown
chain: not shown
light: EVGSYPYDDPDCPSHDSDCDNSGRSAGGGGTPLGLAGSGGSQAVVTQEPSLTVSPGGTVTLTCGSSTGAVTTSNYANWVQQKPGQAPRGLIGGTNKRAPGVPARFSGSLLGGKAALTLSGAQPEDEAEYYCALWYSNLWVFGGGTKLTVLRGGGGSGGGGSGGGGSGGGGSEVQLVESGGGLVQPGGSLRLSCAASGFTFNTYAMNWVRQAPGKGLEWVGRIRSKYNNYATYYADSVKGRFTISRDDSKNTLYLQMNSLRAEDTAVYYCVRHGNFGNSYVSWFAYWGQGTLVTVSSEPKSSDKTHTCPPCPAPELLGGPSVFLFPPKPKDTLMISRTPEVTCVVVDVSHEDPEVKFNWYVDGVEVHNAKTKPREEQYASTYRVVSVLTVLHQDWLNGKEYKCKVSNKALPAPIEKTISKAKGQPREPQVYTDPPSRDELTKNQVSLTCLVDGFYPSDIAVEWESNGQPENCYKTTPPVLDSDGSFFLYSKLTVDKSRWQQGNVFSCSVMHEALHNHYTQDSLSLSPGK
notes: Masked, cleavable version of TY24051, uncleaved; IgG1 Fc with TYM13 mutations and N297A; also called SAFEbody
- EC50 of T-cell mediated killing of SKOV3 cells, fold increase compared with TY24051 [8]: ~800 fold
